Earlier results in publication PMC6165679.

Columns and labels:
[1] = target: APJ receptor (Homo sapiens) (UniProt P35414); test: competition binding
[2] = target: APJ receptor (Homo sapiens) (UniProt P35414)

Chain of UniProt P35414 (P35414 whole entry): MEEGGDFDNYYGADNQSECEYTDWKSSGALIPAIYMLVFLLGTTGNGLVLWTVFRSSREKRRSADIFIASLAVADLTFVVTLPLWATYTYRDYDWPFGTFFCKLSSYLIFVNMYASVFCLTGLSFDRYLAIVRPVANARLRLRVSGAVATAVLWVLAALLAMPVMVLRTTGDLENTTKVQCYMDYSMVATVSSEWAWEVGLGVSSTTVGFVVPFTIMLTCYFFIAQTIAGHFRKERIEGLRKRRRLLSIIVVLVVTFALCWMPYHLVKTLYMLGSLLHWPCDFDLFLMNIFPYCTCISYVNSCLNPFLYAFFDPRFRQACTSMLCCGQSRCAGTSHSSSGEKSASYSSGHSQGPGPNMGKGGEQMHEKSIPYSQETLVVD

cyclo(1–6)CRPRLC-KH-cyclo(9–14)CRPRLC
Kd [1]: 3200 nM | Ki [2]: 82 nM
